The term Kd denotes the constant that tells how readily two partners part at equilibrium.

Holding throughout (experiment): BLI
Assay [1] addresses H7 AN13 HA trimer (A/Anhui/1/2013) (influenza A virus A/Anhui/1/2013 (H7N9)).
The target in assay [2] is H5 VN04 HA trimer (A/Vietnam/1203/2004) (influenza A virus A/Vietnam/1203/2004 …).
The next assay addresses H1 CA09 stem.
The target of assay [3] is H6 HA (recombinant, Figure 4e) (influenza A virus (H6 subtype, strain …)).
The target in assay [4] is H10 JD13 HA trimer (A/Jiangxi-Donghu/346/2013, H10N8) (influenza A virus …).
In assay [5] the target is H1 HA (recombinant, Figure 4e) (influenza A virus (H1 subtype, strain …)).

B1: 789-203-3C12 Fab (Fab, V domains shown)
VH: QVQLQESGPGLVKPSEILSLTCAVSGGSFSSYCWGWIRQPPGKGLEWIGSICGSGGSNYLNPSLKSRVTLSVDTSKNQFSLILNSVTAADTAVYYCAREGITIFGVVIPRVLDSWGQGAVVTVSS
VL: DIQMTQSPSSLSASVGDTVTITCRASQSISSWLAWYQQKPGKAPNLLIYRASTLQSGVPSRFSGSGSGTDFTLTISSLQSEDFATYFCQQSTSSPFTFGPGTKLDIK
Take B1: the Kd in assay [1] is 534 nM; in assay [2], 151 nM; in the assay with H1 CA09 stem, 5.66 nM; in assay [3], 27.5 nM; in assay [4] it was 81.6 nM; in assay [5] it was 6.59 nM.

(Values after paper doi:10.1101/2022.02.11.480115 (2022).)
